One block for each substance: values may come before it. Ends that are not written are not given here.
Columns and labels:
Immunoglobulin A (IgA) = assay: Purification from Effluent II+III, IgA mass balance; assay type: binding, human; details: 1 ml Eff. II+III, 4° C.
Method: (§1) Sequences 1-11 and 15 were assayed with Effluent II+III (Eff. II+III). Eff. II+III is a process intermediate in the Cohn plasma fractionation process. The feed stream contains 20% (by volume) ethanol, 20-25 mg/ml hSA and approximately 1 mg/ml AlPI. The stream also contains other proteins including anti-thrombin III (AT3), immunoglobin G (IgG), immunoglobin A (IgA), apolipoprotein alpha-1 (Apo A-1), transferrin (Trf), haptoglobin (Hpt), and alpha-1 acid glycoprotein (AAG) at concentrations ranging from 0.1-1 mg/ml.
(§2) The columns were assayed using the same technique as the hSA+AlPI experiments, allowing for a 10 minute residence time followed by a constant flow rate of 865 μl/min with step elutions of 1M NaCl, 3M NaCl, and 2% acetic acid. All experiments were conducted at 4° C. The mass balances for the injection of 1 ml Eff. […] The AlPI was enriched from 3% of the total protein in the feed to upwards of 50% in the acid eluate.

A1PI [1] = molecular target: T1, A1PI (Homo sapiens, UniProt P01009); assay: A1PI binding on peptide-resin column, injection of 1 mg A1PI in equilibration buffer; details: for Percent AlPI Eluted by Fraction, 1M NaCl / Percent AlPI Eluted by Fraction, 2% Acetic Acid / Percent AlPI Eluted by Fraction, Flowthrough: sequence order, 1 mg AlPI
T1 construct: Human plasma is currently the only approved source of therapeutic AlPI
Summary of the method: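 Peptides synthesized on A-Totda-Toyopearl chelate resin (0.1 mmole/g) packed in 0.4×5 cm columns; 1 mg A1PI injected in equilibration buffer at 4 °C or 20 °C, 865 or 523 μl/min. Flowthrough, 1M/3M NaCl washes and 2% acetic acid eluate quantified by A280 or immunonephelometry as percent of total eluted.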

A1PI [2] = molecular target: T1, A1PI; assay: A1PI purification from 5 mg hSA + 1 mg A1PI on peptide column, A1PI mass balance; assay type: binding; details: A1PI, 5 mg hSA + 1 mg A1PI; for Mass Protein per Eluate Fraction, 1M NaCl / Mass Protein per Eluate Fraction, 2% Ac. Acid / Mass Protein per Eluate Fraction, Flow / Mass Protein per Eluate Fraction, 2% Acetic Acid: * Below detection limit
Summary of the method: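 Peptides on A-Totda-Toyopearl resin (0.1 mmole/g) in 0.4×5 cm columns; 5 mg hSA + 1 mg A1PI loaded at 4 °C or 20 °C with 10 min residence (17 μl/min). Steps of 1M and 3M NaCl, then 2% acetic acid; fractions quantified by immunonephelometry for mass balance.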

[3] = molecular target: T2, apolipoprotein alpha-1 (Apo A-1) (Homo sapiens, UniProt P02647); assay: Purification from Effluent II+III, Apo A-1 mass balance; assay type: binding; details: 1 ml Eff. II+III, 4° C.
T2 construct: Eff; II+III is a process intermediate in the Cohn plasma fractionation process; tissue Bayer Corporation (Clayton, N.C.); host or cells: plasma fraction: Cohn Effluent II+III
Method: as §1, §2

A1PI [4] = molecular target: T1, A1PI; assay: Capture and elution of active A1PI with 2M urea buffer (elastase inhibition activity assay and immunonephelometry); assay type: binding; details: 4° C.; for Mass A1PI in Urea Eluate (mg), Activity / Mass A1PI in Urea Eluate (mg), Nephelometry: 1 mg A1PI, eluted with 2M urea, pH 6; for Mass A1PI in Urea Eluate (mg), Activity: elastase inhibition activity assay; for Mass A1PI in Urea Eluate (mg), Nephelometry: immunonephelometry; for Specific Activity: mass of A1PI by activity assay relative to immunonephelometry, urea eluate
A1PI [5] = molecular target: T1, A1PI; assay: Purification of A1PI from Effluent II+III on peptide column, A1PI mass balance; assay type: binding; details: A1PI, 1 ml Eff. II+III, 4° C.
Summary of the method: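 Run at 4° C: Effluent II+III (1 ml, 20% ethanol) loaded with a 10 min residence. Elution at 865 μl/min, in sequence 1M NaCl, 3M NaCl, 2% acetic acid; A1PI, IgA, IgG and haptoglobin accounted for in each fraction.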

Immunoglobulin G (IgG) = assay: Purification from Effluent II+III, IgG mass balance; assay type: binding, human; details: 1 ml Eff. II+III, 4° C.
Method: as §1, §2

[6] = * as in Tables 4, 5 (below detection limit)
[7] = 1 mg A1PI in equilibration buffer, 4° C.
[8] = 1 mg A1PI in equilibration buffer, 20° C.
[9] = 4° C., relative to total eluted
[10] = 20° C., relative to total eluted
[11] = Table 19, 4° C., relative to total loaded
[12] = Table 19, 20° C., relative to total loaded

T1 sequence (P01009 25-418): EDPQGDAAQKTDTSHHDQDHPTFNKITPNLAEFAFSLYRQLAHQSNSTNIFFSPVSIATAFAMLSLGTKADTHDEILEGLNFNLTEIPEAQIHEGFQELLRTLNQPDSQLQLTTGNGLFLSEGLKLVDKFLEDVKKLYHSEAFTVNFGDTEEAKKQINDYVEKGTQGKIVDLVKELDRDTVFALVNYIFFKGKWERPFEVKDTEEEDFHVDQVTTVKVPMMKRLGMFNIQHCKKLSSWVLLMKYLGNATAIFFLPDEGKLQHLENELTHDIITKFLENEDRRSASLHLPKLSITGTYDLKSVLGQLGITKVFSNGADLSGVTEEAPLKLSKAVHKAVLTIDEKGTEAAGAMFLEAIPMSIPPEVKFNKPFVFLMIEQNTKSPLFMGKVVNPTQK
T2 sequence (P02647 19-267): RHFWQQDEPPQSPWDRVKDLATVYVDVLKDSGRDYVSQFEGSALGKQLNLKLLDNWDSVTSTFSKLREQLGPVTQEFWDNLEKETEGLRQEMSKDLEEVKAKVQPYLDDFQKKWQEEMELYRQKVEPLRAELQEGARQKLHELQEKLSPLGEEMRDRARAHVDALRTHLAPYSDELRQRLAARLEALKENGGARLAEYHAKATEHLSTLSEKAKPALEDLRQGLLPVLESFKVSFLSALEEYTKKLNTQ

Percent A1PI Eluted by Fraction Based on Absorbance at 280 nm, 1M NaCl (A1PI [1]; [7]): 55%
Percent A1PI Eluted by Fraction Based on Absorbance at 280 nm, 2% Acetic Acid (A1PI [1]; [7]): 45%
Percent A1PI Eluted by Fraction Based on Absorbance at 280 nm, Flowthrough (A1PI [1]; [7]): 0%
Percent A1PI Eluted by Fraction, 1M NaCl (A1PI [1]; [8]): 72%
Percent A1PI Eluted by Fraction, 2% Acetic Acid (A1PI [1]; [8]): 28%
Percent A1PI Eluted by Fraction, Flowthrough (A1PI [1]; [8]): 0%
Mass Protein per Eluate Fraction, 1M NaCl (A1PI [2]; 4° C.): 0.19 mg
Mass Protein per Eluate Fraction, 2% Ac. Acid (A1PI [2]; 4° C.): 0.45 mg
Mass Protein per Eluate Fraction, Flow (A1PI [2]; 4° C.): 0.26 mg
Percent Eluted by Fraction, 1M NaCl (A1PI [2]; [9]): 21%
Percent Eluted by Fraction, 2% Ac. Acid (A1PI [2]; [9]): 50%
Percent Eluted by Fraction, 3M NaCl (A1PI [2]; [9]): 0%
Percent Eluted by Fraction, Flow (A1PI [2]; [9]): 29%
Mass Protein per Eluate Fraction, 1M NaCl (A1PI [2]; 20° C.): 0.14 mg
Mass Protein per Eluate Fraction, 2% Ac. Acid (A1PI [2]; 20° C.): 0.54 mg
Mass Protein per Eluate Fraction, Flow (A1PI [2]; 20° C.): 0.09 mg
Percent Eluted by Fraction, 1M NaCl (A1PI [2]; [10]): 19%
Percent Eluted by Fraction, 2% Ac. Acid (A1PI [2]; [10]): 70%
Percent Eluted by Fraction, 3M NaCl (A1PI [2]; [10]): 0%
Percent Eluted by Fraction, Flow (A1PI [2]; [10]): 11%
Percent Eluted by Fraction, 1M NaCl [3]: 0%
Percent Eluted by Fraction, 2% Acetic Acid [3]: 100%
Percent Eluted by Fraction, 3M NaCl [3]: 0%
Percent Eluted by Fraction, Flow [3]: 0%
Mass Protein per Eluate Fraction, 2% Acetic Acid [3, 6]: 0.29 mg
Mass A1PI in Urea Eluate (mg), Activity (A1PI [4]): 0.62 mg
Mass A1PI in Urea Eluate (mg), Nephelometry (A1PI [4]): 0.71 mg
Specific Activity (A1PI [4]): 0.87 mg/mg
Percent Eluted by Fraction, 1M NaCl (A1PI [5]): 4%
Percent Eluted by Fraction, 2% Acetic Acid (A1PI [5]): 80%
Percent Eluted by Fraction, 3M NaCl (A1PI [5]): 0%
Percent Eluted by Fraction, Flow (A1PI [5]): 17%
Mass Protein per Eluate Fraction, 1M NaCl (A1PI [5]; [6]): 0.04 mg
Mass Protein per Eluate Fraction, 2% Acetic Acid (A1PI [5]; [6]): 0.87 mg
Mass Protein per Eluate Fraction, Flow (A1PI [5]; [6]): 0.18 mg
Substance: RAFWYI
Percent Eluted by Fraction, 1M NaCl (Immunoglobulin A (IgA)): 36%
Percent Eluted by Fraction, 2% Acetic Acid (Immunoglobulin A (IgA)): 29%
Percent Eluted by Fraction, 3M NaCl (Immunoglobulin A (IgA)): 0%
Percent Eluted by Fraction, Flow (Immunoglobulin A (IgA)): 35%
Mass Protein per Eluate Fraction, 1M NaCl (Immunoglobulin A (IgA); [6]): 0.12 mg
Mass Protein per Eluate Fraction, 2% Acetic Acid (Immunoglobulin A (IgA); [6]): 0.10 mg
Mass Protein per Eluate Fraction, Flow (Immunoglobulin A (IgA); [6]): 0.12 mg
Percent Eluted by Fraction, 1M NaCl (Immunoglobulin G (IgG)): 9%
Percent Eluted by Fraction, 2% Acetic Acid (Immunoglobulin G (IgG)): 0%
Percent Eluted by Fraction, 3M NaCl (Immunoglobulin G (IgG)): 0%
Percent Eluted by Fraction, Flow (Immunoglobulin G (IgG)): 91%
Mass Protein per Eluate Fraction, 1M NaCl (Immunoglobulin G (IgG); [6]): 0.02 mg
Mass Protein per Eluate Fraction, Flow (Immunoglobulin G (IgG); [6]): 0.24 mg

Percent AlPI Eluted by Fraction, 1M NaCl (A1PI [1]; 4° C.): 29%
Percent AlPI Eluted by Fraction, 2% Acetic Acid (A1PI [1]; 4° C.): 71%
Percent AlPI Eluted by Fraction, Flowthrough (A1PI [1]; 4° C.): 0%
Percent AlPI Eluted by Fraction, 1M NaCl (A1PI [1]; 20° C.): 3%
Percent AlPI Eluted by Fraction, 2% Acetic Acid (A1PI [1]; 20° C.): 97%
Percent AlPI Eluted by Fraction, Flowthrough (A1PI [1]; 20° C.): 0%
Mass Protein per Eluate Fraction, 1M NaCl (A1PI [2]; Table 19, 4° C.): 0.14 mg
Mass Protein per Eluate Fraction, 2% Acetic Acid (A1PI [2]; Table 19, 4° C.): 0.43 mg
Mass Protein per Eluate Fraction, Flow (A1PI [2]; Table 19, 4° C.): 0.31 mg
Percent Eluted by Fraction, 1M NaCl (A1PI [2]; [11]): 16%
Percent Eluted by Fraction, 2% Acetic Acid (A1PI [2]; [11]): 49%
Percent Eluted by Fraction, 3M NaCl (A1PI [2]; [11]): 0%
Percent Eluted by Fraction, Flow (A1PI [2]; [11]): 35%
Mass Protein per Eluate Fraction, 1M NaCl (A1PI [2]; Table 19, 20° C.): 0.00 mg
Mass Protein per Eluate Fraction, 2% Acetic Acid (A1PI [2]; Table 19, 20° C.): 0.65 mg
Mass Protein per Eluate Fraction, Flow (A1PI [2]; Table 19, 20° C.): 0.09 mg
Percent Eluted by Fraction, 1M NaCl (A1PI [2]; [12]): 0%
Percent Eluted by Fraction, 2% Acetic Acid (A1PI [2]; [12]): 88%
Percent Eluted by Fraction, 3M NaCl (A1PI [2]; [12]): 0%
Percent Eluted by Fraction, Flow (A1PI [2]; [12]): 12%
Mass A1PI in Urea Eluate (mg), Activity (A1PI [4]): 0.56 mg
Mass A1PI in Urea Eluate (mg), Nephelometry (A1PI [4]): 0.71 mg
Specific Activity (A1PI [4]): 0.79 mg/mg
Substance: RVLFIH: reversed sequence of VIFLVR with C-terminal His
